What all share (assay): ELONA (direct, immobilized protein)
In data set [1] the target is SARS-CoV-2 Alpha VOC spike (S) protein (SARS-CoV-2 (Alpha variant)) (UniProt P0DTC2).
Data set [2] concerns the target SARS-CoV-2 Delta VOC spike (S) protein (SARS-CoV-2 (Delta variant)) (UniProt P0DTC2).
In data set [3] the target is SARS-CoV-2 Omicron VOC spike (S) protein (SARS-CoV-2 (Omicron variant)) (UniProt P0DTC2).

For orientation: Kd means a measure of binding affinity in units of concentration. In data set [1], “AGTTAGCCGTCATTCAGACGATTTGTCCGTGTTACGATTGGGGAACGTGGATGACATTCTGGACACTCGCCATGCTCGAT [Alpha Apt (Bio)]” yielded a Kd of 194 nM.

In data set [2], “ATCGAGCATGGCGAGTGTCCTATCCCCCATCAACTCAACCCAACCAGTACGACTCCTCCTCGTCTGAATGACGGCTAACT [Delta Apt (Bio)]” displayed a dissociation constant (Kd) of 112 nM.

As for “CTGGCCTCACTGGATACTCTAAGACTATTGGTCAAGTTTGCCTTGTCAAGGCTATTGGTCAAGGCAAGGCTGGCCAACCCATGGGTGGAGTTTAGCCAG [Omicron Apt (Bio)]”, the Kd in data set [3] came out at 32 nM.

Values taken from publication PMC11868117.
